Reference: patent US20230235054A1 (BIOATLA, published 2023)

T1: recombinant human Nectin4 antigen (human, UniProt Q96NY8 32-349)
T1 construct: construct not described
T1 sequence (looked up): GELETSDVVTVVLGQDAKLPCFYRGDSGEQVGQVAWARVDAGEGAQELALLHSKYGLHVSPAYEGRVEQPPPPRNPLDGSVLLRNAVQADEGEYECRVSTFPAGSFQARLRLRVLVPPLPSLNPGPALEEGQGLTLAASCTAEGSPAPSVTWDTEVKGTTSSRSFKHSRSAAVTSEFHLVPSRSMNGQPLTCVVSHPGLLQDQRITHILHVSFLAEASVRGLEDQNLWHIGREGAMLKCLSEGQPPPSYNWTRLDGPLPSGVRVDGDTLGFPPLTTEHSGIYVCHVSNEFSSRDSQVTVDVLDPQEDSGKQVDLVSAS

T2: huNectin4-His (human, UniProt Q96NY8 32-349)
T2 construct: Immobilized on the SPR chip; also called humanNectin4; human Nectin4; not shown: His tag
T2 sequence (looked up): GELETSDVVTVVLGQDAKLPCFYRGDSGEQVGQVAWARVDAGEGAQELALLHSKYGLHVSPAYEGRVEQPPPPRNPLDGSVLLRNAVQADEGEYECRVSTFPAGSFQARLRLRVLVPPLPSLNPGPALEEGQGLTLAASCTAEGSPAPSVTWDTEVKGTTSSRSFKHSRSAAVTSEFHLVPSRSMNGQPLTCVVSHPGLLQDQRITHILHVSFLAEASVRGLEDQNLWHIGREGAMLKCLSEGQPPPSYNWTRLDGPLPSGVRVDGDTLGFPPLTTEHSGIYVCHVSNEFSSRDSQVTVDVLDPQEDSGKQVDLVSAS

T3: cynoNectin4-mFc (cyno, UniProt A0A2K5WES1 32-349)
T3 construct: Immobilized on the SPR chip; also called cyanoNectin4; not shown: mFc (mouse Fc)
T3 sequence: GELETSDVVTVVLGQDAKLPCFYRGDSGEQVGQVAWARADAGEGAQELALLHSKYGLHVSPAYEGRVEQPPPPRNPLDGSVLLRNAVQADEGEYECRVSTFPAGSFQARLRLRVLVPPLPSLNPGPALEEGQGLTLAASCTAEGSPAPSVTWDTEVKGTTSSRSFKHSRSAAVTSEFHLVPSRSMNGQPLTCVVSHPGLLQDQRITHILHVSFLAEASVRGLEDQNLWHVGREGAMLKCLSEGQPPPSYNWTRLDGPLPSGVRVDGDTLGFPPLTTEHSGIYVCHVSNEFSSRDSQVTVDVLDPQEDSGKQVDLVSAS

T4: cynoNectin4 antigen (cynomolgus (cyno), UniProt A0A2K5WES1 32-349)
T4 construct: construct not described; also called cynomolgus (cyno) Nectin-4
T4 sequence: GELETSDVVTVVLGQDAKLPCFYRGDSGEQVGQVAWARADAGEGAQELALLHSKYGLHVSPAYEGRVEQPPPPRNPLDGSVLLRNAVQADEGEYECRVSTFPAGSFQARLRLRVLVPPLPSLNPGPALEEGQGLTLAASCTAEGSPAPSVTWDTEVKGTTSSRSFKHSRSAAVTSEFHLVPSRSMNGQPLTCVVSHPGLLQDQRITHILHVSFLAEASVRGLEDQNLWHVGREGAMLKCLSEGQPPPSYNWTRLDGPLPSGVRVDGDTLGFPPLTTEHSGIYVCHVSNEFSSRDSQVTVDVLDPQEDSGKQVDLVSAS


Columns and labels:
[1] = target: T1, recombinant human Nectin4 antigen; assay: ELISA, coated antigen, PSB pH 7.4
Method: (§1) 1) Coat ELISA plates with 100 μL of 1 μg/mL recombinant human Nectin4 antigen or cynoNectin4 antigen in carbonate-bicarbonate coating buffer. […] 2) Cover plates with sealing film and incubate overnight at 4° C. [0444] 3) Decant plates and tap out residual liquid on a stack of paper towels. [0445] 4) Wash wells twice by dispensing 200 μL of pH 6.0 or pH 7.4 ELISA incubation buffer to the wells and completely aspirate the contents. [0446] 5) Add 200 μL of pH 6.0 or pH 7.4 ELISA incubation buffer to the wells. Cover with sealing film and place the plate onto a plate shaker set to 50 rpm for 60 minutes at room temperature. [0447] 6) Decant plates and tap out residual liquid on a stack of paper towels. […] 7) Serially dilute test articles in 3-fold dilutions starting at 3000 ng/mL in pH 6.0 or pH 7.4 ELISA incubation buffer. […] 8) Add 100 μL/well of diluted test articles to the plates [0450] 9) Cover with sealing film and place the plates onto a plate shaker set to 50 rpm for 60 minutes at room temperature. [0451] 10) Decant plates and tap out residual liquid on a stack of paper towels. [0452] 11) Wash wells three times by dispensing 200 μL of pH 6.0 or pH 7.4 ELISA wash buffer to the wells and completely aspirate the contents. […] 12) Dilute the HRP secondary antibody at 1:2500 in pH 6.0 or pH 7.4 ELISA incubation buffer. [0454] […] 14) Cover with sealing film and place the plates onto a plate shaker set to 50 rpm for 60 minutes at room temperature. […] 15) Decant plates and tap out residual liquid on a stack of paper towels. […] 16) Wash wells three times by dispensing 200 μL of pH 6.0 or pH 7.4 ELISA wash buffer to the wells and completely aspirate the contents. [0458] 17) Dispense 50 μL per well of the TMB substrate solution into all wells of the plates.

[2] = target: T2, huNectin4-His; assay: SPR, huNectin4-His immobilized, pH 6.0
Method: (§2) Binding kinetics of anti-Nectin4 antibodies were measured by surface plasmon resonance using a SPR2/4 instrument (Sierra Sensors, Hamburg, Germany) and flat amine sensor chips. The SPR sensor contained four flow cells (FC1-FC4), each of which was addressed individually or in groups. huNectin4-His was immobilized in FC2, and cynoNectin4-mFc in FC4. No protein was immobilized in FC1 and FC3 which were used as control surfaces for FC2 and FC4, respectively.
(§3) All injections were done at a flow rate of 25 μL/min at 25° C. The sensor surface was activated with 1-ethyl-3-(3-dimethylaminopropyl)-carbodiimide (EDC) and N-hydroxysuccinimide (NHS) (200 mM/50 mM) for 480 seconds. HuNectin4-His (2 μg/mL in 10 mM NaAc, pH4.5) was injected for 480s and the surface was inactivated by injecting 1M ethanolamine-HCl for 480s. CynoNectin4 was immobilized using the same conditions as described for huNectin4-His, except that the cynoNectin4 was diluted into 10 mM NaAc buffer having pH 5.0. The control surface was activated and deactivated using the same conditions, but without injecting protein. PBST buffer (PBS pH 7.4 with 0.05% TWEEN20™) was used as running buffer for the surface preparation. The running solution was switched to PBST with 30 mM sodium bicarbonate with the pH adjusted as indicated in the figures before the analyte injections. The instrument was equilibrated with the running solution for one hour before the first analyte injection.
(§4) The off-rate was measured for 360s. The chip surface was regenerated after each cycle of interaction analysis by injecting 6 μL of 10 mM glycine (pH 2.0). Flow cells 1 and 3 without immobilized protein were used as control surfaces for reference subtraction.

[3] = target: T1, recombinant human Nectin4 antigen; assay: ELISA, coated antigen, PSB pH 6.0
Method: as §1

[4] = target: T3, cynoNectin4-mFc; assay: SPR, cynoNectin4-mFc immobilized, pH 6.0
Method: as §2, §3, §4

[5] = target: T4, cynoNectin4 antigen; assay: ELISA, coated antigen, PSB pH 7.4
Method: as §1

[6] = target: T3, cynoNectin4-mFc; assay: SPR, cynoNectin4-mFc immobilized, pH 7.4
Method: as §2, §3, §4

[7] = target: T2, huNectin4-His; assay: SPR, huNectin4-His immobilized, pH 7.4
Method: as §2, §3, §4

[8] = target: T2, huNectin4-His; assay: SPR, huNectin4-His immobilized, pH 7.4; pH 7.4
Method: as §2, §3, §4

| Binder | EC50 [1] | Kd [2] | koff [2] | kon [2] | EC50 [3] | Kd [4] | koff [4] | kon [4] | EC50 [5] | Kd [6] | koff [6] | kon [6] | Kd [7] | koff [7] | kon [7] | Kd [8] | koff [8] | kon [8] |
| --- | --- | --- | --- | --- | --- | --- | --- | --- | --- | --- | --- | --- | --- | --- | --- | --- | --- | --- |
| BAP-143-00-02 (antibody, V domains shown, Used as a conjugate with a linker payload (CAB ADC)) VH: EVQLVESGGGLVQPGGSLRLSCAASGFTFSSYNMNWVRQAPGKGLEWVSYISSSSSTIYYADSVKGRFTISRDNAKNSLSLQMNSLRDEDTAVYYCARAYYYGMDVWGQGTTVTVSS VL: DIQMTQSPSSVSASVGDRVTITCRASQGISGWLAWYQQKPGKAPKFLIYAASTLQSGVPSRFSGSGSGTDFTLTISSLQPEDFATYYCQQANSEPPTFGGGTKVEIK |  |  |  |  |  |  |  |  |  |  |  |  |  |  |  | 9760 pM | 0.00478 s⁻¹ | 490000 M⁻¹ s⁻¹ |
| BAP-143-00-04 (antibody, V domains shown, Used as a conjugate with a linker payload (CAB ADC)) VH: EVQLVESGGGLVQPGGSLRLSCAASGFTFSSYNDNWVRQAPGKGLEWVSYISSSSSTIYYADSVKGRFTISRDNAKNSLSLQMNSLRDEDTAVYYCARAYYYGMDVWGQGTTVTVSS VL: DIQMTQSPSSVSASVGDRVTITCRASQGISGWLAWYQQKPGKAPKFLIYAASTLQSGVPSRFSGSGSGTDFTLTISSLQPEDFATYYCQQANSFPPTFGGGTKVEIK | 0.061 µg/mL |  |  |  |  |  |  |  |  |  |  |  |  |  |  |  |  |  |

Results, then the binder that gave them:

| EC50 [1] | Kd [2] | koff [2] | kon [2] | EC50 [3] | Kd [4] | koff [4] | kon [4] | EC50 [5] | Kd [6] | koff [6] | kon [6] | Kd [7] | koff [7] | kon [7] | Kd [8] | koff [8] | kon [8] | Binder |
| --- | --- | --- | --- | --- | --- | --- | --- | --- | --- | --- | --- | --- | --- | --- | --- | --- | --- | --- |
| 0.141 µg/mL |  |  |  |  |  |  |  |  |  |  |  |  |  |  |  |  |  | BAP-143-00-05 (antibody, V domains shown, Used as a conjugate with a linker payload (CAB ADC)) VH: EVQLVESGGGLVQPGGSLRLSCAASGFTFSSYNMNWVRQAPGKGLEWVSYISSSSSTIYYADSVKGRFTISRDNAKNSLSLQMNSLRDEDTAVYYCAEAYYYGMDVWGQGTTVTVSS VL: DIQMTQSPSSVSASVGDRVTITCRASQGISGWLAWYQQKPGKAPKFLIYAASTLQSGVPSRFSGSGSGTDFTLTISSLQPEDFATYYCQQANSFPPTFGGGTKVEIK |
|  | 690 pM | 0.000869 s⁻¹ | 1.26e+06 M⁻¹ s⁻¹ | 0.0533 µg/mL | 1150 pM | 0.00113 s⁻¹ | 983000 M⁻¹ s⁻¹ | 0.086 µg/mL | 1850 pM | 0.000651 s⁻¹ | 352000 M⁻¹ s⁻¹ | 925 pM | 0.000401 s⁻¹ | 434000 M⁻¹ s⁻¹ |  |  |  | BAP-143-07-03-12 (antibody, V domains shown, Used as a conjugate with a linker payload (CAB ADC)) VH: EVQLVESGGGLVQPGGSLRLSCAASGFTFSSYNMNWVRQAPGKGLEWVSYISSSSSTIYYADSVKGRFTISRDNAKNSLSLQMNSLRDEDTAVYYCARAYYYGMDKWGQGTTVTVSS VL: DIQMTQSPSSVSASVGDRVTITCRASQGISGWEAWYQQKPGKAPKFLIYAASTLQSGVPSRFSGSGSGTDFTLTISSLQPEDFATYYCQQANSFPPTFGGGTKVEIK |
|  | 110 pM | 0.000195 s⁻¹ | 1.77e+06 M⁻¹ s⁻¹ | 0.0669 µg/mL | 187 pM | 0.000273 s⁻¹ | 1.46e+06 M⁻¹ s⁻¹ |  | 2370 pM | 0.000175 s⁻¹ | 73900 M⁻¹ s⁻¹ | 170 pM | 2.01e-05 s⁻¹ | 119000 M⁻¹ s⁻¹ |  |  |  | BAP-143-06-33-16 (antibody, V domains shown, Used as a conjugate with a linker payload (CAB ADC)) VH: EVQLVQSGAEVKKPGATVKISCKVSGFTFSSYNMNWIRQSPSRGLEWLGYISSSSSTIYYADSVKGRFTISRDNSKNTLYLQMNSLRAEDTAVYYCARAYYYGDDVWGQGTLVTVSS VL: DIQMTQSPSSVSASVGDRVTITCRASQGISGWEAWYQQKPGKAPKFLIYAASTLQSGVPSRFSGSGSGTDFTLTISSLQPEDFATYYCQQANSFPPTFGGGTKVEIK |
